Source: patent US9518268B2, “Drought tolerant transgenic plants and method of making same” (PURDUE RESEARCH FOUNDATION, priority 2013, dated 2016)

Columns and labels:
Test in all cases: Phosphatase activity assay (pNPP) with purified PP2Cs and PYLs
ABI1 [1] = assay type: biochemical, Arabidopsis thaliana; conditions: in the presence of 10 μM ABA; ABI1 and PYLs 0.3 μM
Method: (§1) The inhibition by PYL13 is ABA-independent, whereas the inhibition by PYR1 and PYL2 is ABA-induced (FIG. 4B). […] The phosphatase activities of PP2CA, ABI1, and ABI2 were measured in the absence or presence of ABA (1.25 μM), and with or without PYLs. The concentration of PP2Cs and PYLs was 0.3 μM. The A405 value of reaction without PP2C was set as 0% and that of the reaction with PP2C but without ABA and PYLs was set as 100%. Error bars indicate s.e.m. (n=6 for PP2CA and ABI2, and n=3 for ABI1).
(§2) To test the functional significance of potential heterodimer formation between PYL13 and other PYLs, the abilities of PYL1 and PYL2 and the protein complexes PYL13-PYL1 and PYL13-PYL2 to inhibit the phosphatase activity of ABI1 were compared using purified recombinant proteins and the synthetic phosphatase substrate pNPP. […] The phosphatase activity of ABI1 was measured (using pNPP) in the absence or presence of 10 μM ABA, with or without PYLs, and with PYL13-PYL dimers. The concentration of ABI1 and PYLs was 0.3 μM. The A405 value of reaction without ABI1 was set as 0% and that of the reaction with ABI1 but without ABA and PYLs was set as 100%. Error bars indicate s.e.m. (n=6). In the presence of 10 μM ABA, ABI1 phosphatase activity was reduced to 67±6% by PYL1 but only to 88±8% by PYL13-PYL1. In the presence of 10 μM ABA, ABI1 phosphatase activity was reduced to 50±3% by PYL2 but only to 78±10% by PYL13-PYL2.
(§3) Phosphatase activity was measured using the colorimetric substrate p-nitrophenyl phosphate (pNPP, SIGMA). Reactions were performed in a reaction buffer containing 50 mM Tris-HCl, pH 7.5, 25 mM Mg(OAc)2, 2 mM MnCl2, 0.5 mM EGTA, 0.5% β-mercaptoethanol, and 0.5% BSA. ABA and PYLs were added as indicated. The concentration of PP2Cs and PYLs was 0.3 μM. Reactions were initiated by the addition of pNPP to a final concentration of 50 mM. The hydrolysis of pNPP was measured by following the absorbance at 405 nm (A405). Because His-PYL13 is difficult to purify, is prone to degradation, and rapidly loses activity, newly purified PYL13 was used for the phosphatase activity assay.

ABI1 [2] = molecular target: T1, ABI1 (Arabidopsis thaliana, UniProt P49597); assay type: biochemical; conditions: PP2Cs and PYLs 0.3 μM
T1 construct: GST (N, cleaved yes); made in house; host or cells: Escherichia coli BL21 (DE3.0)
T1 sequence (P49597 1-434): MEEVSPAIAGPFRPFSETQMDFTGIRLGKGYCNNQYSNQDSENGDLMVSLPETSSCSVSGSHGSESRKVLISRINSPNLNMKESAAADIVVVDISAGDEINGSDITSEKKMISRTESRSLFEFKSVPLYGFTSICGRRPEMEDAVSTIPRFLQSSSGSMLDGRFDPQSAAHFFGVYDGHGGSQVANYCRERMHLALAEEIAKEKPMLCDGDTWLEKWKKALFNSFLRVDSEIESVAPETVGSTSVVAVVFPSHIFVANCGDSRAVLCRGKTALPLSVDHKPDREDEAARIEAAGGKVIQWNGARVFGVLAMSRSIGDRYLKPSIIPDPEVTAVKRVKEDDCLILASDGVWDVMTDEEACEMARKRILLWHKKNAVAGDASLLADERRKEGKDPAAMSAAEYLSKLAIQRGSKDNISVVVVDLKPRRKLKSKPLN
Method: as §1, §2, §3

ABI2 = molecular target: T2, ABI2 (Arabidopsis thaliana, UniProt O04719); assay type: biochemical; conditions: PP2Cs and PYLs 0.3 μM
T2 construct: GST (N, cleaved yes); made in house; host or cells: Escherichia coli BL21 (DE3.0)
T2 sequence (O04719 1-423): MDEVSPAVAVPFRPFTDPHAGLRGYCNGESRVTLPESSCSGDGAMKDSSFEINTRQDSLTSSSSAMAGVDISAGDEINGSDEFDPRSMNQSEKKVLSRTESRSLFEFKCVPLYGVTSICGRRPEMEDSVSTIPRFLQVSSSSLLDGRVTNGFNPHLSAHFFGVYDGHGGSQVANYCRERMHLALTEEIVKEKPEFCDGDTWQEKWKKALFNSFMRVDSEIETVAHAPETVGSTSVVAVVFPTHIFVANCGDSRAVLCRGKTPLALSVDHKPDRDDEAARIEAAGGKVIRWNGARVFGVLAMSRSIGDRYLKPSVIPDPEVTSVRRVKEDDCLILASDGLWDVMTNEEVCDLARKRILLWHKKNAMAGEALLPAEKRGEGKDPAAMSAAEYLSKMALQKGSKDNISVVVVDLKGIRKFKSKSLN
Method: as §1, §3

PP2CA = molecular target: T3, PP2CA (Arabidopsis thaliana, UniProt P49598); assay type: biochemical; conditions: PP2Cs and PYLs 0.3 μM
T3 construct: GST (N, cleaved yes); made in house; host or cells: Escherichia coli BL21 (DE3.0)
T3 sequence (P49598 1-399): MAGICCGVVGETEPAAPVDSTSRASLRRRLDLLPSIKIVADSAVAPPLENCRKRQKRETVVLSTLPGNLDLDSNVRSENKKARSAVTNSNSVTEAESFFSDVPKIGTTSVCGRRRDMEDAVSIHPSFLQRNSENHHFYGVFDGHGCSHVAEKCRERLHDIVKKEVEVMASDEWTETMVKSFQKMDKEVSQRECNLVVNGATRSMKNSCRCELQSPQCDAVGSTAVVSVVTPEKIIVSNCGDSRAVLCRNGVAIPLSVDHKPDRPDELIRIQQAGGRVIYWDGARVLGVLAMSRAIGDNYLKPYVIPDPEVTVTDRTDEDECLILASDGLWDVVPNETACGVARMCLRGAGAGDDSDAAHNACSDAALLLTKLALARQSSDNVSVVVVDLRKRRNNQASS
T3 sequence (Q9SN51 1-164 partner): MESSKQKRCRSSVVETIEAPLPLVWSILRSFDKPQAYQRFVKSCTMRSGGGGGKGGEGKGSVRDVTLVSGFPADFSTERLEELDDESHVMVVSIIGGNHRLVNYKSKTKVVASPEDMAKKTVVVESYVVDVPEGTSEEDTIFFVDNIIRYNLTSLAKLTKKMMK
Method: as §1, §3

Molecule: PYL2: Arabidopsis thaliana PYL family ABA receptor protein PYL2, AT2G26040
- ABI1 phosphatase activity reduced to (ABI1 [1]): 50±3%

B1: PYL13: Arabidopsis thaliana PYR/PYL/RCAR family protein PYL13, SEQ ID NO: 1 (protein, listed as Arabidopsis thaliana)
chain: T3 sequence (Q9SN51 1-164 partner)
- ABI1 phosphatase activity reduced to (ABI1 [2]; with 1.25 μM ABA): 75±3%
- ABI1 phosphatase activity reduced to (ABI1 [2]; without ABA): 75±3%
- ABI2 phosphatase activity reduced to (ABI2; with 1.25 μM ABA): 93±6%
- ABI2 phosphatase activity reduced to (ABI2; without ABA): 89±8%
- PP2CA phosphatase activity reduced to (PP2CA; with 1.25 μM ABA): 54±5%
- PP2CA phosphatase activity reduced to (PP2CA; without ABA, PP2C without ABA and PYLs = 100%): 55±5%
